Data as given in patent US20220411517A1 (LEO PHARMA A S, published 2022).

Tests used:
[1] = biological target: T1, hIL-1RAP(1-367)_F-chLys_Avi (human, biotinylated (Avi tag) in SPR and ELISA binning; unlabeled in SET); assay: solution equilibrium titration (SET), ECL read-out, IgG
T1 construct: also called human IL-1RAcP (AG-12210)
Description: (§1) MSD SulfoTAG™ NHS-Ester (Meso Scale Diagnostics) according to the manufacturer's instructions. […] Serial dilutions of unlabeled antigen were prepared, starting with a concentration at least 10 times higher than the expected KD. Wells without antigen were used to determine Bₘₐₓ values;
(§2) wells containing only assay buffer were used to determine background. […] MSD plates were coated with antigen on standard plates (30 μL per well). After washing the plate with PBS with 0.05% Tween 20, the equilibrated samples were transferred to the plates and incubated for 20 min. […] After washing the MSD plate and adding 30 μL/well MSD Read Buffer T with surfactant, electrochemiluminescence signals were detected using a MESO SECTOR S 600 (Meso Scale Diagnostics).
(§3) The data was evaluated with XLfit (IDBS) software applying customized fitting models.

human IL-1RAcP on cells [2] = biological target: T2, human IL-1RAcP on cells (human, UniProt Q9NPH3 21-570); assay: cell-based or functional assay
[3] = biological target: T3, cynomolgus IL-1RAcP on cells (cynomolgus, UniProt A0A2K5X5J5 21-570); assay: cell-based or functional assay
[4] = biological target: T4, cyIL-1RAP(1-367)_F-chLys_Avi (cynomolgus, biotinylated (Avi tag) in SPR; unlabeled in SET); assay: solution equilibrium titration (SET), ECL read-out, IgG
T4 construct: cynomolgus IL-1RAcP (21-367) is UniProt A0A2K5X5J5; also called cynomolgus IL-1RAcP (AG-12211)
Description: as §1, §2, §3

[5] = biological target: T5, human IL1RAcP domain 1 (AG-12335) (human); assay: ELISA on directly coated human IL-1RAcP domain 1 (AG-12335), IgG titrated, S/BG
T5 construct: also called domain 1 of human IL-1RAcP
T5 chain: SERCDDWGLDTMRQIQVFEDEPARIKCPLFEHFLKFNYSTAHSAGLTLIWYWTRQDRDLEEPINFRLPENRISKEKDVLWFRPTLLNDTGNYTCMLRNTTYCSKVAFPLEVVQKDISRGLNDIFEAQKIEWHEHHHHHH
Description: All were assessed with direct coating of the antigen. […] An anti-His antibody served as positive control.

recombinant rat IL-1RAcP = recombinant rat IL-1RAcP (rat, UniProt Q63621 21-367, limits assumed); assay: ELISA (FIG. 1-3 cited)
human IL-1RAcP on cells [6] = biological target: T2, human IL-1RAcP on cells; assay: cell-based or functional assay; remark: listed apart in the source
[7] = biological target: T3, cynomolgus IL-1RAcP on cells; assay: cell-based or functional assay; remark: listed apart in the source
human IL-1RAcP on cells [8] = biological target: T2, human IL-1RAcP on cells; assay: flow cytometry on primary human dermal fibroblasts expressing endogenous IL-1RAcP (FIG. 4-1)
Description: Cell suspensions were transferred into microtiter plates and antibody samples were added followed by subsequent incubation of plates at 4° C. for 3 hours. Following incubation, cells were washed several time with FACS buffer.

[9] = biological target: T6, human IL1RAcP domain 3 (AG-12127) (human); assay: ELISA on directly coated human IL-1RAcP domain 3 (AG-12127), IgG titrated, S/BG
T6 construct: also called domain 3 of human IL-1RAcP
T6 chain: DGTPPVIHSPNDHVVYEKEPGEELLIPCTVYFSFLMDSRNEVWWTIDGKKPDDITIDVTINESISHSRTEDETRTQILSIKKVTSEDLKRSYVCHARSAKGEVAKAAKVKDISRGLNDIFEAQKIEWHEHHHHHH

[10] = biological target: T1, hIL-1RAP(1-367)_F-chLys_Avi; assay: SET, ratio of KD values
[11] = biological target: T4, cyIL-1RAP(1-367)_F-chLys_Avi; assay: SET, ratio of KD values
[12] = biological target: T7, mouse (AG-12212) IL-1RAcP (mouse, UniProt Q61730 21-367, limits assumed); assay: ELISA, Fc-capture mode of the IgGs (FIG. 1-3)
T7 construct: Recombinant tagged antigen; also called recombinant mouse IL-1RAcP; mouse IL-1RAP
Excerpt: (§4) Bound antibodies were detected using respective alkaline-phosphatase (AP) coupled secondary antibodies in combination with ‘AttoPhos’ fluorescence substrate. Multiple washing steps have been performed in between individual assay steps.

[13] = biological target: T8, human IL1RAcP domain 1/2 (AG-12337) (human); assay: ELISA on directly coated human IL-1RAcP domain 1/2 (AG-12337), IgG1f_AEASS titrated, S/BG
T8 construct: also called domain 1/2 of human IL-1RAcP

[14] = biological target: T4, cyIL-1RAP(1-367)_F-chLys_Avi; assay: SPR (Biacore), biotinylated antigen captured, FabCys-AviHis as analyte, 1:1 fit; comment: Koff approaching assay limit
Description: (§5) Approximately 3000 RU capture reagent was bound. This surface was used to load biotinylated antigen to generate a low-density surface for subsequent kinetic characterization (approx. 60-100 RU antigen loaded). […] After injecting the last and highest analyte concentration, a long dissociation phase was recorded. […] A blank injection of assay buffer (HBS-EP+) following the same injection pattern as described above was recorded and subtracted from specific sensorgrams during analysis (double referencing). At the end of each cycle, the sensor was regenerated with one 120 s injection of 6 M guanidine hydrochloride in 250 mM NaOH, which completely removed capture reagent with loaded biotinylated antigen and bound Fab fragments. The obtained sensorgrams were fitted to a monovalent binding model using Biacore Insight Evaluation Software. The obtained values for rate constants kₒₙ and koff were used to calculate KD.

[15] = biological target: T1, hIL-1RAP(1-367)_F-chLys_Avi; assay: ELISA binning; competitor: coated CAN04 FabCys-AviHis; 1.5 nM biotinylated human IL-1RAcP (AG-12210) pre-incubated with the titrated Fab; captured IL-1RAcP detected with streptavidin-AP
Description: (§6) Epitope binning was performed using an ELISA-based competition assay. The experiments were performed using either IgG1f_AEASS or FabCys-AviHis. Antibodies were diluted to three (3) nM (for IgGs) or to 20 nM (in case of Fabs) in PBS. […] The next day 90 μL/well blocking solution (5% BSA in PBS) was added to the plate followed by an incubation at RT for at least 1 h. During incubation, the competing antibodies, including reference and negative control antibodies, were diluted in assay buffer (1xPBS, 0.5% BSA, 0.02% Tween). […] Following the incubation of the blocking solution, the ELISA plates were washed 3× with PBST. Subsequently, 20 μl/well of the prepared antibody/antigen solution was transferred to the wells and incubated for 30 min with gentle agitation. Subsequently, plates were washed 3× using PBS-T.
(§7) For detection 20 μl of a prepared streptavidin-alkaline phosphatase conjugate solution was added to the wells in order to detect bound biotinylated human IL-1RAcP. Incubation happened for 30 min with gentle agitation. Following the incubation with streptavidin-alkaline phosphatase conjugate, assay plates were washed 5× with PBS-T. Then 20 μl of AttoPhos substrate (diluted 1:5 in H₂O) was added to the wells. Plates were incubated for 10 min at RT and readout happened using a Tecan M1000 Pro Reader.
(§8) Every graph represents an individual first antibody in the FabCys-AviHis format coated on the surface. […] Subsequently, preformed antigen antibody complex was added to the respective wells with the surface coated first antibody. Detection happened via the biotin of IL-1RAcP using a streptavidin-alkaline phosphatase conjugate.

[16] = biological target: T1, hIL-1RAP(1-367)_F-chLys_Avi; assay: SPR (Biacore), biotinylated antigen captured, FabCys-AviHis as analyte, 1:1 fit
Description: as §5

[17] = biological target: T1, hIL-1RAP(1-367)_F-chLys_Avi; assay: ELISA binning; competitor: coated Y024149 FabCys-AviHis (sheet title Y024149_FAB COATED); 1.5 nM biotinylated human IL-1RAcP (AG-12210) pre-incubated with the titrated Fab; captured IL-1RAcP detected with streptavidin-AP
Description: as §6, §7, §8

[18] = biological target: T1, hIL-1RAP(1-367)_F-chLys_Avi; assay: ELISA binning; competitor: coated Y024148 FabCys-AviHis; 1.5 nM biotinylated human IL-1RAcP (AG-12210) pre-incubated with the titrated Fab; captured IL-1RAcP detected with streptavidin-AP
Description: as §6
For detection 20 μl of a prepared streptavidin-alkaline phosphatase conjugate solution was added to the wells in order to detect bound biotinylated human IL-1RAcP. Incubation happened for 30 min with gentle agitation. Following the incubation with streptavidin-alkaline phosphatase conjugate, assay plates were washed 5× with PBS-T. Then 20 μl of AttoPhos substrate (diluted 1:5 in H₂O) was added to the wells. Plates were incubated for 10 min at RT and readout happened using a Tecan M1000 Pro Reader. […]

[19] = biological target: T4, cyIL-1RAP(1-367)_F-chLys_Avi; assay: SPR (Biacore), biotinylated antigen captured, FabCys-AviHis as analyte, 1:1 fit; comment: Koff at assay limit
Description: as §5

[20] = biological target: T1, hIL-1RAP(1-367)_F-chLys_Avi; assay: ELISA binning; competitor: coated Y024084 FabCys-AviHis (sheet title Y024084_FAB COATED); 1.5 nM biotinylated human IL-1RAcP (AG-12210) pre-incubated with the titrated Fab; captured IL-1RAcP detected with streptavidin-AP
Description: as §6, §7, §8

[21] = biological target: T1, hIL-1RAP(1-367)_F-chLys_Avi; assay: ELISA on human IL-1RAcP (AG-12210), IgG1f_AEASS titrated 0.007-200 nM, AP-coupled secondary antibody with AttoPhos, signal over background (S/BG)
Excerpt: as §4

[22] = biological target: T7, mouse (AG-12212) IL-1RAcP; assay: ELISA in Fc-capture mode of the IgGs, mouse IL-1RAcP (AG-12212), S/BG
Excerpt: as §4

human IL-1RAcP on cells [23] = biological target: T2, human IL-1RAcP on cells; assay: FACS on Flp-In CHO cells over-expressing human IL-1RAcP, IgG1f_AEASS titrated 1e-12 to 2e-7 M, median FL2-H over background
[24] = biological target: T4, cyIL-1RAP(1-367)_F-chLys_Avi; assay: ELISA on cynomolgus IL-1RAcP (AG-12211), IgG1f_AEASS titrated 0.007-200 nM, AP-coupled secondary antibody with AttoPhos, signal over background (S/BG)
Excerpt: as §4

B1: Y024149_h_IgG1f_AEASS (antibody, V domains shown)
VH: EVQLVESGGGLVQPGGSLRLSCAASGGTFGGSAMHWVRQAPGKGLVWVSRILTYGGIATYAESVKGRFTISRDNAKNTLYLQMNSLRAEDTAVYYCARGSSEYPKFDIWGQGTLVTVSS
VL: DIQMTQSPSTLSASVGDRVTITCRASQSISSWLAWYQQKPGKAPKLLIYDASSLESGVPSRFSGSGSGTEFTLTISSLQPEDFATYYCHQLLIYPHTFGQGTKVEIKR
notes: Human IgG1f with AEASS effector-silencing residues, kappa light chain
[1]
  Kd: 0.003 nM
Human IL-1RAcP on cells [2]
  IC50, IFNγ release, PBMC stimulated with IL-1β: 1.7 nM
  IC50, IFNγ release, PBMC stimulated with IL-33: 0.2 nM
  IC50, IL-8 release, HDFa stimulated with IL-1α: 1.1 nM
  IC50, IL-8 release, HDFa stimulated with IL-36α: 0.039 nM
  IC50, IL-8 release, HDFa stimulated with IL-36β: 0.06 nM
  IC50, IL-8 release, HDFa stimulated with IL-36γ: 0.026 nM
  IC50, IL-8 release, HEKa stimulated with IL-1β: 31 nM
  IC50, IL-8 release, HEKa stimulated with IL-36β: 0.094 nM
[3]
  IC50, IL-8 release, CyDFa stimulated with cynomolgus IL-1β: 0.032 nM
[4]
  Kd: 0.001 nM
[5]
  binding result: no binding (tested: 2e-7 M)
Recombinant rat IL-1RAcP
  binding result: no binding
Human IL-1RAcP on cells [6]
  IC50, IL-6 release, human whole blood stimulated with 1 ng/ml rhIL-1β: ~10 nM
  IC50, IL-6 release, human whole blood stimulated with 5 ng/ml rhIL-1β: ~8 nM
  IC50, IL-6 release, human whole blood stimulated with 10 ng/ml rhIL-1β: ~20 nM
[7]
  IC50, IFN-γ release, cynomolgus whole blood stimulated with 300 ng/ml rcIL-33: ~15 nM
  IC50, IL-6 release, cynomolgus whole blood stimulated with 50 ng/ml rcIL-1β: ~50 nM
  IC50, IL-6 release, cynomolgus whole blood stimulated with IL-1β: ~70 nM
Human IL-1RAcP on cells [8]
  EC50: 1.48 nM
[9]
  binding result: no binding (tested: 2e-7 M)
[10]
  fold stronger KD than reference R001031 (CAN04): ~7 fold
  fold stronger KD than reference R001032 (1A05): ~3.5 fold
[11]
  fold stronger KD than reference R001031 (CAN04): ~16 fold
  fold stronger KD than reference R001032 (1A05): ~15 fold
[12]
  binding result: no binding
[13]
  EC50 (read off the curve): ~5 nM

B2: Y024148_h_FabCys-AviH (Fab, V domains shown)
VH: EVQLVESGGGLVQPGGSLRLSCAASGGTIGGSAVHWVRQAPGKGLVWVSRILTYSSTTQYAESVKGRFTISRDNAKNTLYLQMNSLRAEDTAVYYCARGSSEYPKFDIWGQGTLVTVSS
VL: DIQMTQSPSTLSASVGDRVTITCRASQSISSWLAWYQQKPGKAPKLLIYDASSLESGVPSRFSGSGSGTEFTLTISSLQPEDFATYYCHQLLIYPHTFGQGTKVEIKR
notes: Disulphide-linked Fab with Avi and His tags; also called Y024148 in FabCys-AviHis format
[14]
  Kd: 0.008 nM
[15]
  IC50 (read off the curve): ~1 nM
[16]
  Kd: 0.018 nM

B3: Y024149_h_FabCys-AviH (Fab, V domains shown)
VH: EVQLVESGGGLVQPGGSLRLSCAASGGTFGGSAMHWVRQAPGKGLVWVSRILTYGGIATYAESVKGRFTISRDNAKNTLYLQMNSLRAEDTAVYYCARGSSEYPKFDIWGQGTLVTVSS
VL: DIQMTQSPSTLSASVGDRVTITCRASQSISSWLAWYQQKPGKAPKLLIYDASSLESGVPSRFSGSGSGTEFTLTISSLQPEDFATYYCHQLLIYPHTFGQGTKVEIKR
notes: Disulphide-linked Fab with Avi and His tags; also called Y024149 in FabCys-AviHis format
[17]
  IC50 (read off the curve): ~0.7 nM
[18]
  IC50 (read off the curve): ~0.7 nM
[15]
  IC50 (read off the curve): ~1 nM
[16]
  Kd: 0.025 nM
[19]
  Kd: 0.006 nM
[20]
  IC50 (read off the curve): ~0.7 nM

B4: R001032 (1A05) (antibody, human IgG1, kappa, V domains shown)
VH: LEQSGGGAEGGLVKPGGSLELCCKASGFSLSTSYWRCWVRQAPGKGLEWIGCIYAGSGDVTYYANWVNGRFTLSRDIDQSTGCLQLNSLTAADTAMYYCASGVGFGYFNLWGQGTLVTVSS
VL: ALVMTQTPSPVSAAVGGTVTINCQASEDIYSNLAWFQQKPGQPPKLLIYDASTLASGVPSRFSGSGSGTEFTLTISGLQSDDAATYYCLGVYTHISADNAFGGGTEVVVKR
notes: Rabbit variable domains of prior art 1A05 on human IgG1 kappa constant regions with AEASS; also called P013.S.01.B.A05
[21]
  EC50 (read off the curve): 0.1 to 0.2 nM
[1]
  Kd: 0.011 nM
Human IL-1RAcP on cells [2]
  IC50, IFNγ release, PBMC stimulated with IL-1β: 5 nM
  IC50, IFNγ release, PBMC stimulated with IL-33: 1.8 nM
  IC50, IL-8 release, HDFa stimulated with IL-1α: 24 nM
  IC50, IL-8 release, HDFa stimulated with IL-36α: 0.05 nM
  IC50, IL-8 release, HDFa stimulated with IL-36β: 0.15 nM
  IC50, IL-8 release, HDFa stimulated with IL-36γ: 0.067 nM
  IC50, IL-8 release, HEKa stimulated with IL-1β: 162 nM
  IC50, IL-8 release, HEKa stimulated with IL-36β: 0.12 nM
[3]
  IC50, IL-8 release, CyDFa stimulated with cynomolgus IL-1β: 0.48 nM
[4]
  Kd: 0.015 nM
[5]
  binding result: no binding (tested: 2e-7 M)
[22]
  binding result: no binding (tested: 200 nM)
Human IL-1RAcP on cells [23]
  EC50 (read off the curve): ~2 nM
[9]
  binding result: no binding (tested: 2e-7 M)
[24]
  EC50 (read off the curve): 0.1 to 0.2 nM
[13]
  EC50 (read off the curve): ~4 nM
